Where two headings read alike, the source gives them in different places.
Key:
[1] = target: HA of A/duck/Czechoslovakia/1956 (H4); assay: ELISA, recombinant HA
[2] = target: HA of A/duck/Czechoslovakia/1956 (H4); assay: ELISA, recombinant HA; remark: listed apart in the source
[3] = target: HA of A/Singapore/1/1957 (H2) (influenza A virus (H2), UniProt Q67333 16-525)
[4] = target: HA of A/Hong Kong/1/1968 (H3N2) (influenza A virus (H3N2), UniProt Q91MA7 17-530)
[5] = target: T1, HA of A/California/04/2009 (H1N1) (influenza A virus (H1N1), UniProt P26140 18-529); assay: ELISA, recombinant HA
[6] = target: T1, HA of A/California/04/2009 (H1N1); assay: ELISA, recombinant HA; remark: listed apart in the source
[7] = target: T1, HA of A/California/04/2009 (H1N1); assay: BLI, Fab on immobilized biotinylated HA
[8] = target: T1, HA of A/California/04/2009 (H1N1); assay: BLI, Fab on immobilized biotinylated HA; remark: listed apart in the source
[9] = target: T1, HA of A/California/04/2009 (H1N1); assay: ELISA (highest dilution tested 1/50,000)

B1: FluA-20 (hybridoma-produced IgG) (antibody, V domains shown)
VH: QVQLQESGPGLVKPSETLSLTCSVSGVSVTSDIYYWTWIRQPPGKGLEWIGYIFYNGDTNYNPSLKSRVTMSIDTSKNEFSLRLTSVTAADTAVYFCARGTEDLGYCSSGSCPNHWGQGTLVTVSS
VL: DIQMTQSPSSLSASIGDRVTITCRPSQNIRSFLNWFQHKPGKAPKLLIYAASNLQSGVPSRFSGSGSGTEFTLTIRSLQPEDFATYYCQQSYNTPPTFGQGTKVEIK
Which results are given for B1?
EC50 [1]: 0.013 µg/mL; EC50 [2]: 0.007 µg/mL

B2: rFluA-20 heavy chain mutant T96A (antibody, V domains shown)
VH: QVQLQESGPGLVKPSETLSLTCSVSGVSVTSDIYYWTWIRQPPGKGLEWIGYIFYNGDTNYNPSLKSRVTMSIDTSKNEFSLRLTSVTAADTAVYFCARGAEDLGYCSSGSCPNHWGQGTLVTVSS
VL: DIQMTQSPSSLSASIGDRVTITCRPSQNIRSFLNWFQHKPGKAPKLLIYAASNLQSGVPSRFSGSGSGTEFTLTIRSLQPEDFATYYCQQSYNTPPTFGQGTKVEIK
Which results are given for B2?
EC50 [3]: 0.07 µg/mL; EC50 [4]: 0.1 µg/mL

B3: rFluA-20 (recombinant FluA-20 IgG) (antibody, V domains shown)
VH: QVQLQESGPGLVKPSETLSLTCSVSGVSVTSDIYYWTWIRQPPGKGLEWIGYIFYNGDTNYNPSLKSRVTMSIDTSKNEFSLRLTSVTAADTAVYFCARGTEDLGYCSSGSCPNHWGQGTLVTVSS
VL: DIQMTQSPSSLSASIGDRVTITCRPSQNIRSFLNWFQHKPGKAPKLLIYAASNLQSGVPSRFSGSGSGTEFTLTIRSLQPEDFATYYCQQSYNTPPTFGQGTKVEIK
B3 was tested. Which EC50 [1] did it give?
Its EC50 is 0.018 µg/mL.

And the EC50 [2]?
Its EC50 is 0.007 µg/mL.

B4: rFluA-20 heavy chain mutant Y100aA (antibody, V domains shown)
VH: QVQLQESGPGLVKPSETLSLTCSVSGVSVTSDIYYWTWIRQPPGKGLEWIGYIFYNGDTNYNPSLKSRVTMSIDTSKNEFSLRLTSVTAADTAVYFCARGTEDLGACSSGSCPNHWGQGTLVTVSS
VL: DIQMTQSPSSLSASIGDRVTITCRPSQNIRSFLNWFQHKPGKAPKLLIYAASNLQSGVPSRFSGSGSGTEFTLTIRSLQPEDFATYYCQQSYNTPPTFGQGTKVEIK
Which results are given for B4?
EC50 fold over wild-type rFluA-20 [3]: > 100 fold; EC50 [4]: 0.07 µg/mL

B5: rFluA-20 heavy chain mutant Y34A (antibody, V domains shown)
VH: QVQLQESGPGLVKPSETLSLTCSVSGVSVTSDIAYWTWIRQPPGKGLEWIGYIFYNGDTNYNPSLKSRVTMSIDTSKNEFSLRLTSVTAADTAVYFCARGTEDLGYCSSGSCPNHWGQGTLVTVSS
VL: DIQMTQSPSSLSASIGDRVTITCRPSQNIRSFLNWFQHKPGKAPKLLIYAASNLQSGVPSRFSGSGSGTEFTLTIRSLQPEDFATYYCQQSYNTPPTFGQGTKVEIK
With B5 as the binder, how does the EC50 [3] read?
The EC50 was 0.11 µg/mL.

And the EC50 [4]?
The EC50 was 0.07 µg/mL.

B6: rFluA-20 light chain mutant N53A (antibody, V domains shown)
VH: QVQLQESGPGLVKPSETLSLTCSVSGVSVTSDIYYWTWIRQPPGKGLEWIGYIFYNGDTNYNPSLKSRVTMSIDTSKNEFSLRLTSVTAADTAVYFCARGTEDLGYCSSGSCPNHWGQGTLVTVSS
VL: DIQMTQSPSSLSASIGDRVTITCRPSQNIRSFLNWFQHKPGKAPKLLIYAASALQSGVPSRFSGSGSGTEFTLTIRSLQPEDFATYYCQQSYNTPPTFGQGTKVEIK
Which results are given for B6?
EC50 [3]: 0.16 µg/mL; EC50 [4]: 0.06 µg/mL

B7: rFluA-20 heavy chain mutant E97A (antibody, V domains shown)
VH: QVQLQESGPGLVKPSETLSLTCSVSGVSVTSDIYYWTWIRQPPGKGLEWIGYIFYNGDTNYNPSLKSRVTMSIDTSKNEFSLRLTSVTAADTAVYFCARGTADLGYCSSGSCPNHWGQGTLVTVSS
VL: DIQMTQSPSSLSASIGDRVTITCRPSQNIRSFLNWFQHKPGKAPKLLIYAASNLQSGVPSRFSGSGSGTEFTLTIRSLQPEDFATYYCQQSYNTPPTFGQGTKVEIK
Which EC50 [3] does the source give for B7 here?
Its EC50 is 0.13 µg/mL.

What about the EC50 [4] of the same binder?
The EC50 was 0.07 µg/mL.

B8: UCA (antibody, V domains shown)
VH: QVQLQESGPGLVKPSETLSLTCTVSGGSVSSGSYYWSWIRQPPGKGLEWIGYIYYSGSTNYNPSLKSRVTISVDTSKNQFSLKLSSVTAADTAVYYCARGTEDLGYCSGGSCPNHWGQGTLVTV
VL: not shown
With B8 as the binder, how does the EC50 [5] read?
The EC50 was 0.14 µg/mL.

And the EC50 [1]?
The EC50 was 0.025 µg/mL.

What about the EC50 [6] of the same binder?
Its EC50 is 0.051 µg/mL.

And the EC50 [2]?
The EC50 was 0.013 µg/mL.

B9: FluA-20 UCA Fab (unmutated common ancestor of FluA-20) (Fab, V domains shown)
VH: QVQLQESGPGLVKPSETLSLTCTVSGGSVSSGSYYWSWIRQPPGKGLEWIGYIYYSGSTNYNPSLKSRVTISVDTSKNQFSLKLSSVTAADTAVYYCARGTEDLGYCSGGSCPNHWGQGTLVTV
VL: not shown
How did the Kd [7] turn out when B9 was run?
The Kd was 1430 nM.

What about the Kd [8] of the same binder?
Its Kd is 1430 nM.

B10: H5.31 (antibody, V domains shown)
VH: EVQLVQSGGGLVQPGGSLRLSCEASRFTSSSYWITWVRQAPGKGLEWVANIKQDGSEKYFVDSVKGRFTISRDNASNSLYLQMSSLRAEDTAVYYCARGFLERLLLGRQGAYYYGMDVWGQGTTVTVSS
VL: DIQMTQSPSSLSASVGDRVTMTCRASQSISSSLNWYQQKPGKAPKLLIYAASNLQSGVPSRFSGSGSGTDFTLTISSLQPEDFATYYCQQSYTMPPELTFGGGTKVQIK
For B10, which EC50 [9] is on record?
Its EC50 is 0.045 µg/mL.

B11: H5.28 (antibody, V domains shown)
VH: EVQLVESGGGLVQPGGSLRLSCAASGFTFSTYWMTWVRQAPGKGLEWVANINQDGGEKYFVDSVKGRFTISRDNAKNSLFLQMNTLRAEDTAVYYCARGFLERLLLGRQGAYYYGMDVWGQGTTVTVSS
VL: DIQMTQSPSSLSASVGDRVSMTCRASQIISSSLNWYQQKPGKAPKLLIYAASNLQSGVPSRFSGSGSGTDFTLTISSLQPEDFATYYCQQSYSTPPELTFGGGTKVEIK
Which EC50 [9] does the source give for B11 here?
Its EC50 is 0.074 µg/mL.

From patent US20210252150A1 (VANDERBILT UNIVERSITY, published 2021)
